These results are taken from the nanobody polyreactivity screen of Harvey et al. (2022).

The data set in a line: yeast display, Sf9 membrane polyspecificity reagent, FACS + sequencing; frameworks hold sequencing errors. The method in brief: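 A synthetic nanobody library was expressed on Saccharomyces cerevisiae BJ5465 by galactose induction for 36–48 hours. The library was stained for 1 hour at 4 °C with 10% biotinylated, detergent-solubilized Sf9 membrane reagent and enriched with streptavidin microbeads before FACS. Low and high (top ~1%) gates were set on anti-HA fluorescence for expression and streptavidin fluorescence for reagent binding, and each polyreactivity label reflects the gate of origin.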
On to “QVQLVESGGGLVQAGGSLRLSCAASGSIILQNAMGWYRQAPGKERELVAAITNGGSTNYADSVKGRFTISRDNAKNTVYLQMNSLKPEDTAVYYCAAYPLYTGSYDRGGYWGQGTQVTVSS”, for which the “polyreactivity (PSR sort gate)” value is “low polyreactivity”.

Consider “QVQLVESGGGLVQAGGILRLSSDTSRSIFSTNGMGWYRPAHGKERELVAAMSTGGRKYYADSVKVRFTISRDNAKNTVYLQMNSLIPEDSAVFYCAIDHWTTSYDEGYYWGQGTQVTVSW”, for which the “polyreactivity (PSR sort gate)” value was “low polyreactivity”.

For “QVQLVESGGGLVQAGGSLRLSCAASGLIFRYYSMAWYRQAPGKERELVAAISKSGDRTYYADSVKGRFTISRDNAKNTVYLEMNSLKPEATGVYYCAADSYPSPNFEDNYWGQGTQVTVSS”, the “polyreactivity (PSR sort gate)” value is given as “low polyreactivity”.

Take “QVQLVESGGGIVQAGGSLRLSCAASGSTLEPNAMGWYRQAPGKERELVAAITIGGSTYYADSVKGRFTISRDNAKYTVYLQMNSLKPEDTAVYYCAAKSTVQRRRHTNYDYWGQGTQVTVSS”: the “polyreactivity (PSR sort gate)” value is “high polyreactivity”.

Consider “QVQLVESGGGLVQAGGSLRLSCAASGRTFYFNGMGWYRQAPGKERELVATITASGTITYYADSVKGRFTISRDNAKNTVYLQLNSLKPEDTAVYYCAARQRGYYYSRRYDYWGQGTQVTVTS”, for which the “polyreactivity (PSR sort gate)” value is “high polyreactivity”.

Regarding “QVQHVESGGGLVQAGGSLRLSCADSGSTLRGNAMGWYRQAPGKEREMVAAISIGSRTNYADSVKGRFTISRDNAKNTDYLQMNSLKPEDTAVYYCAKDISLRVRGPYYFGFDYWGQGTQVTVSS”, the “polyreactivity (PSR sort gate)” value was “low polyreactivity”.

Take “QVQLVESGGGLVQAGGSLRLSCAASGRIFDYYTMGWYRQAPGKERELVAGINSGDSTYYADYVKGRFTISRDNAKNTVYLQMNSLKPEDTAVYYCAASADWWYEYWGQGTQVTVSS”: the “polyreactivity (PSR sort gate)” value is recorded as “high polyreactivity”.

In the case of “QVQLVESGGGLVQAGGSLRLSCAASGRIFQTYTMGWYRQAPGKERELVARITGGDSTYYADSVKGRFTISRDNAKNTVYLQMNSLKPEDTAVYYCAGEVWSYWGTFNYWGQGTQVTVSS”, the “polyreactivity (PSR sort gate)” value is “low polyreactivity”.

As to “QVQLVESGGGLVHAGGSIRLSCAASGRIFGYYTMGWYRQAPGKERELVAAIRGNGGSTYYADSVKGLFTISRDNAKNTVYLQMHSLKPQDTAVYYCAATDISYRRVPYGRKKQYDYWGQGTQVTVSS”, the “polyreactivity (PSR sort gate)” value is recorded as “high polyreactivity”.

Consider “QVQLVESGGGIVQAGGSLRLSCAASGRIFGTYGMGWYRQAPGKERELVAAISGGGSTNYADSVKGRFTISRDNAKNTVYLQMNSLKPEDTAVYYCAARYPPYRSWYSYDYWGHGTQVTVSS”, for which the “polyreactivity (PSR sort gate)” value is given as “low polyreactivity”.

In the case of “QVQLVESGGGLVQAGGSLRLSCAASGGIFGRYAMGWYRQAPGKERELVAGLSYSGGSTYYADSVKGRFTISRDNEKNTVYLQMTSLKAEDTAVYYCAADTRRTYENYYWGQGTQVTVSS”, the “polyreactivity (PSR sort gate)” value was “high polyreactivity”.

With “QVQLVESGGGLVQAGGSLRLSCAASGSIFTYYAMGWYRQAPGKERELVAAINWSGGSTYYADSVKGRFTISRDNAKNTVYLQMNSLKPEDTAVYYCATDYYARRHSPRYDYWGQGTQVTVSS”, the “polyreactivity (PSR sort gate)” value is on record as “low polyreactivity”.

With “QVQLVESGGGLVQAGGSLRLSCAASGSIFGYNAMGWYRQAPGKERELVAAISSSGSSTYADSVKGRFTISRDNAKNTVYLQMNSLKPEDTAVYYCNKTTLLTVEYDYWGQGTQVTVSS”, the “polyreactivity (PSR sort gate)” value is given as “low polyreactivity”.

Regarding “QVQLVESGGGLVQAGGSLRLSCAASGRTFQYYAMGWYRQAPGKERELVAAITSGGSTYYADSVTGRFTISRDNAKYTVYLQLNSLKPEDTAVYYCDATFYYSGHDDYWGQGTLVTVSS”, the “polyreactivity (PSR sort gate)” value is “low polyreactivity”.

With “QVQLVESGGGLVQAGGSLRLSCAAAGSIFRGYAMGWYRQEPEKERELVADISRRGGSTYYADSVKGRFTISRDNAKNTVYLQMNSLKPEDTAVYYCAKDGTGAGTYDYWGQGTQVTVSS”, the “polyreactivity (PSR sort gate)” value is reported as “low polyreactivity”.

Regarding “QVQLVESGGGLVQAGRSLRLSCAASGSTILYYAMGWYRQAHGKERELVARITTRGSRTYYADSVKGRFTISRDNAKNTVYLQMNSLKPEDTAVYYCNKVRPGYGVTYLVGYWGQGTQVTVSS”, the “polyreactivity (PSR sort gate)” value is recorded as “high polyreactivity”.

Take “QVQLVESAGGLVQAGGSLRLSCDASGSTFVINAMGWYRPAPGKERELVAAISKSGGRTYYADSVKGRFTISRDNAKNTVYLQMNSLKPEDTAVYYCAAVSQRTRYGYWGQGTQVTVSS”: the “polyreactivity (PSR sort gate)” value is reported as “high polyreactivity”.

“QFQLVESGGGLVQAGGSLRLSCAASGRTLHGYTMGWYRQAPGKVREFVATISSIGGSTYYADSVKGRFTISRDNAKNTVYLQMNSLKPEDTAVYYCNRGRARVIFSGMDYWGQGTQVTVSS”: the “polyreactivity (PSR sort gate)” value is given as “low polyreactivity”.

“QVQLVESGAGLVQAGGSLRLSCAASGFTLVLNAMGGYSQAPGKERELVAAIRRSAGSTYYADSVKGRFTISRDNAKNTVYLQMNSLKPEDTAVYYSNADYTYTDRRFAPAGGWYYYWGQGTQVTVSS”: the “polyreactivity (PSR sort gate)” value is given as “low polyreactivity”.

For the sequence “QVQHVESVGGLVQAGGSLRLSCAASGYIFIRYPMGCYRQANGKERELDAAITWSDGTTYYADSVKGRFTISRDNAKNTVYLQMNSLKPEDTAVYYCAADRKVESVSRYDYWGQGTQVTVSS”, the “polyreactivity (PSR sort gate)” value is recorded as “low polyreactivity”.

Regarding “QVQLVESGGGLVQAGGSLRLSCAASGRIFNKYTMGWYRQAPGKERELVAAIRGRGGSTYYADSVKGRFTISRDNAKNTVYLQMNSLKPEDTAVYYCAADSGPFYSKTPTRYGYWGQGTQVTVSS”, the “polyreactivity (PSR sort gate)” value is on record as “high polyreactivity”.

Take “QVQLVESGGGLVQAGGSLRLSCAASGSIFPSYAMGWYRQAPGKERELVATISGSGTRTYYADSVKGRFTISRDNAKNTVYLQMNILKPEDTAVYYCAADPWLGTGRYDYWGQGTQVTVSS”: the “polyreactivity (PSR sort gate)” value is on record as “low polyreactivity”.

Regarding “QVQLVESGGGLVQAGGRLRLSCAASGRTFPWNVMGWYRQAPGKERELVAAISWSSGRTYYADSVKGRFTISRDNAKNTVYLQMNSLKPDDTAVYYCAKRYRPYRGNSGNDYWGQGTQVTVSS”, the “polyreactivity (PSR sort gate)” value is recorded as “high polyreactivity”.

In the case of “QVQLVESGGGLVQAGGSLRLSCAASGSTLRRHAMGWYRQAPGKERELVAAISSGGSTYYEDSVKGRFTISRDNAKNTVYLQMNSLKPEDTAVYYCAAPYSYRTWYPYGYWVQGTQVTVSS”, the “polyreactivity (PSR sort gate)” value is “high polyreactivity”.

“QVQLVESGGGLVQAGGSLRLSCAASGIIFSYNAMGWYRQAPGKERELVAAITRRGTRTYYADSVKGRFTISRDNAKNTVYLQMNSLKPEDSAVYYCAADYVRPGTKYDYWGQGTQVTVSS”: the “polyreactivity (PSR sort gate)” value is “high polyreactivity”.

With “QVQVVESGGGLVQAGGSLRLSCAASGSTFVRNAMGWYRQAPGKDRELVAAITTSGARTYYADSVKGRFTISRDNAKHTVYLQMNSLKPEDTAVYYCAAEYKGRTYRFDYWGQGTQVTVSS”, the “polyreactivity (PSR sort gate)” value is “low polyreactivity”.

Take “QVQLVESGGGLVQAGGSLRLSCAASGRIFGENAMGWYRQAPGKEWEFVAVISISDASTYYADSVKGRFTISRDNAKNSVDFQMNSLKPEDTAVYYCAADLTDFLYVASDYWGQGTQVTVSS”: the “polyreactivity (PSR sort gate)” value is “low polyreactivity”.

For “QVQLVESGGGLVQAGGSLRLSCAASGSTFRRNAMGWYRQAPGKERELVAAIDKSGGTTYYADSVKGRFTISRDNAKNTVYLQMNSLKPEDTAVYYCAVRSYLSSRGSHDYWGQGTQVTVSS”, the “polyreactivity (PSR sort gate)” value is “low polyreactivity”.

As for “QVQLVESGGGLVQAGGSLRLSCAASGSTFWAYALGWYRHAPGKERELVAAITTGGGRTFYADSVMGRFTISRDNGKNTVYLQLNSLIPEDTAVYYCGAVSQSYRMYYWGQGTQVTVSS”, the “polyreactivity (PSR sort gate)” value is “low polyreactivity”.

Take “QLQLVESGGGLVLAAGSLRLSCAASGYTFKSYAMGCSRQAPGKERELVAAISNGGNTYYADSVKGRFTISRDNAKNTVYIQMNSLKPEDTAVYYCAARYGYYYSRYDHWGQGTQVTVSS”: the “polyreactivity (PSR sort gate)” value was “low polyreactivity”.

For “QVQLVESGGGLVQAGGSLRLSCAASGRTFGYYAMGWYRPAPGKERELVAAISSGGGTYYADSVKGRFTISRDNAKNTVYLQRNSLNPEASAVYYIAATGWLYWGQFYYWGQGTLVTVSS”, the “polyreactivity (PSR sort gate)” value was “low polyreactivity”.

Take “QVQLVESGGGLVQAGGSLRLSCAASGRIFPEYAMGWYRQAPGKERELVAAITSSGRTYYADSVKGRFTISRDNAKNTVYLQMNSLKPEDTAVYYCAASFRRYYRWDYGFWGQGTQVTVSS”: the “polyreactivity (PSR sort gate)” value is given as “high polyreactivity”.

Take “QVQLVESGGGLVQAGGSLRLSCAASGNIFPDYAMGWYRQAPGKERELVAAISWSGGSTYYADSVKGRFTISRDNAKNTVYLQMNSLKPEETAVYYCAAGRRGRSYNRIRYDYWGQGTQVTVSS”: the “polyreactivity (PSR sort gate)” value is recorded as “high polyreactivity”.

On to “QVQLEESGGGLVQAGGSLRLSCAASGRIFRPNAMGWYRQAPGKERELVAAISSGGSTYYADSVKGRFTISRDNAKNTVYLQMNSLKPEDTAVYYCAARSRGYDIRYGYWGQGTQVTVSS”, for which the “polyreactivity (PSR sort gate)” value is “high polyreactivity”.

With “QVQLVESGGGLVQAGGSLRLSCAASGSIFTRNALGWYRQAPGKETEFVAAISSSGVSTYYADSVKGRFTISRDNAKNTVYLQMNSLKPEDTAVYDCAARWGTKSGRFEYWGQGTQVTVSW”, the “polyreactivity (PSR sort gate)” value is listed as “high polyreactivity”.

On to “QVQLVESGGRLVQAGGSLRLSCAASGSIFVHNAMGWYRQAPGKERDLVAANTWSGGSTYYADSVKGRFTISRDNAKNTVYLQMNSVKPEDTAVYYCAAEDVAAQWAYESPTSYWYYYWGQGTQVTVSS”, for which the “polyreactivity (PSR sort gate)” value was “low polyreactivity”.

“QVQLVESGGGLVHAGGSLRLSCAASGSTFTRNAMGWYRQAPGKERELVATISWRSGSTYYADSVKGRFTISRDNAKNTVYLQMNSLKQEDTAGYYCAADYLNIYNYWGQGTQVTVSS”: the “polyreactivity (PSR sort gate)” value is “high polyreactivity”.

Consider “QVQLVESGGGLVQAGGSLRLSCAASGSTFTINVMGWYRQAPGKERELVAAINGGGRTNYADSVKGRFTSSRDNAKNTVYLQMNSLKPEDTAVYYCAADGLSNVRQMDYWGQGTQVTVSS”, for which the “polyreactivity (PSR sort gate)” value is “low polyreactivity”.

As to “QVQLQERSGGLVQAGGSLRLSCAASGYIFNNVNMGWYSQSPGKEREFVAAVGSGSSTNYADSVKGRFTISRDNTKNTGYLHMNSLKPEDTAVYYCNAVRRTGGHGDYWGLGTQVTVSS”, the “polyreactivity (PSR sort gate)” value is on record as “high polyreactivity”.

As for “QVQLVESGGGLVQAGGSLRLSCAASGFIFGYNAMGWYRQAPGKERELVAAINWSGGRTYYADSVKGRFTISRDNPKNTVYLQMNSLKPEDTAVSYCNADGSRRYNYWGQGTQVTVSS”, the “polyreactivity (PSR sort gate)” value is on record as “low polyreactivity”.

For the sequence “QVQLEESGGGLVQAGGSLRLSCAASGLIFIVYAMGWYRQAPGKERELVAAISFSGGSTYYADSVKGRFTISRDNAKNTVYLQMNSLKPEDTAVYYCAARARYTRRGRNYDYWGQGTQVTVSS”, the “polyreactivity (PSR sort gate)” value is given as “high polyreactivity”.
